According to the RNAGym collection of RNA variant scans (doi:10.7554/elife.80360):

B1: Hairpin Ribozyme (parent)
chain: GUCCUCUUUCACGUGCGCGUGAAAGAGAGAAGUGAACCAGAGAAACACACGUUGUGGUAUAUUACCUGGUA

Variants of: B1
Test: self-cleavage, relative activity (ratio to wild type); higher = more cleavage; co-transcriptional

Variant | self-cleavage
U5A G34U | 1.07
U5A G40A | 0.17
U5A G42C | 0.106
U5A G42U | 0.275
U5A G56C | 0.0893
U5A G56U | 0.206
U5A G57A | 0.154
U5A G57C | 0.231
U5A G68A | 0.146
U5A G68C | 0.11
U5A U14G | 0.233
U5A U20C | 0.358
U5A U20G | 0.566
U5A U33G | 0.131
U5A U52A | 0.646
U5A U53G | 0.278
U5A U55A | 0.163
U5A U55G | 0.147
U5A U58A | 0.387
U5A U58C | 0.615
U5A U63G | 0.264
U5A U67A | 0.0927
U5A U67C | 0.111
U5A U70A | 0.286

Variant | self-cleavage
U5A U70C | 0.543
U5C A22C | 0.586
U5C A22U | 0.732
U5C A24U | 0.229
U5C A26G | 1.26
U5C A28C | 0.139
U5C A30C | 0.154
U5C A30G | 0.111
U5C A35G | 0.358
U5C A36U | 0.348
U5C A39C | 0.51
U5C A44U | 0.0797
U5C A45C | 0.0908
U5C A59G | 0.222
U5C A59U | 0.0936
U5C A64C | 0.19
U5C A64G | 0.587
U5C A64U | 0.0907
U5C A71C | 1.16
U5C C6U | 0.318
U5C C16G | 0.516
U5C C16U | 0.71
U5C C18U | 0.613
U5C C37G | 0.205

Variant | self-cleavage
U5C C38U | 0.298
U5C C46G | 0.0996
U5C C48A | 0.122
U5C C50A | 0.0675
U5C C65U | 0.24
U5C G13C | 0.47
U5C G15A | 0.675
U5C G19C | 0.435
U5C G19U | 0.565
U5C G21A | 0.62
U5C G21C | 0.6
U5C G21U | 0.593
U5C G25C | 0.202
U5C G25U | 0.28
U5C G34A | 0.78
U5C G34C | 1
U5C G34U | 1.45
U5C G40A | 0.321
U5C G40C | 0.0912
U5C G40U | 0.19
U5C G42A | 0.133
U5C G51A | 0.737
U5C G56C | 0.159
U5C G57A | 0.0835

Variant | self-cleavage
U5C G57C | 0.0878
U5C G68C | 0.159
U5C G69U | 0.186
U5C U8G | 0.429
U5C U9A | 0.418
U5C U9G | 0.187
U5C U52A | 0.706
U5C U53G | 0.448
U5C U60C | 0.549
U5C U60G | 0.236
U5C U62A | 0.118
U5C U63C | 0.286
U5C U67G | 0.245
U5C U70A | 0.594
U5C U70G | 0.664
U5G A11G | 0.335
U5G A11U | 0.0986
U5G A22C | 0.24
U5G A22U | 0.176
U5G A23C | 0.431
U5G A23U | 0.192
U5G A24U | 0.235
U5G A28G | 0.669
U5G A30C | 0.0771

Variant | self-cleavage
U5G A30U | 0
U5G A31C | 0.091
U5G A31G | 0.17
U5G A35U | 0.156
U5G A36G | 0.166
U5G A39C | 0.129
U5G A39U | 0.11
U5G A43G | 0
U5G A44C | 0.147
U5G A44G | 0.177
U5G A47U | 0.0832
U5G A59U | 0.0694
U5G A71G | 0.207
U5G C6A | 0.321
U5G C6G | 0.224
U5G C6U | 0.151
U5G C10U | 0.317
U5G C12G | 0.239
U5G C12U | 0.529
U5G C16G | 0.146
U5G C16U | 0.269
U5G C18A | 0.37
U5G C37A | 0.23
U5G C37U | 0.516

Variant | self-cleavage
U5G C46G | 0.243
U5G C46U | 0.279
U5G C48A | 0.125
U5G C48G | 0.0331
U5G C50A | 0.184
U5G C50G | 0.165
U5G C65A | 0.268
U5G C65U | 0.218
U5G C66G | 0.127
U5G G13A | 0.245
U5G G19C | 0.202
U5G G21C | 0.177
U5G G25U | 0.306
U5G G27C | 0.0408
U5G G29C | 0.0639
U5G G32C | 0.091
U5G G34A | 0.603
U5G G34C | 0.886
U5G G42A | 0.0213
U5G G51A | 0.377
U5G G51C | 0.221
U5G G54U | 0.228
U5G G56A | 0.0193
U5G G56C | 0.124

Variant | self-cleavage
U5G U7C | 0.143
U5G U7G | 0.171
U5G U8A | 0.126
U5G U9A | 0.346
U5G U9G | 0.147
U5G U20A | 0.279
U5G U20G | 0.238
U5G U33A | 0.17
U5G U33C | 0.0793
U5G U52C | 0.596
U5G U53C | 0.0534
U5G U60G | 0.353
U5G U62A | 0.124
U5G U62C | 0.129
U5G U63A | 0.127
U5G U63G | 0.0714
U5G U67A | 0.275
U5G U67C | 0.117
U5G U70G | 0.354
C6A | 0.586
C6A A22G | 0.453
C6A A23G | 0.387
C6A A24U | 0.487
